Test results published in US20260347449 (published 2026).
Numbering of substitutions follows the chain as printed. Where two headings read alike, the source gives them in different places.

What was measured:
human C5 [1] = target: T1, human C5 (human, UniProt P01031); assay: BLI
human C3 [2] = target: T2, human C3 (human, UniProt P01024); assay: ELISA
human C3 [3] = target: T2, human C3; assay: BLI
human C5 [4] = target: T1, human C5; assay: ELISA
human C5 W917S = human C5 W917S (human, UniProt P01031); assay: BLI
human C5 [5] = target: T1, human C5; assay: BLI; remark: listed apart in the source
cynomolgus C5 = target: T3, cynomolgus C5 (cynomolgus); assay: BLI
T3 chain: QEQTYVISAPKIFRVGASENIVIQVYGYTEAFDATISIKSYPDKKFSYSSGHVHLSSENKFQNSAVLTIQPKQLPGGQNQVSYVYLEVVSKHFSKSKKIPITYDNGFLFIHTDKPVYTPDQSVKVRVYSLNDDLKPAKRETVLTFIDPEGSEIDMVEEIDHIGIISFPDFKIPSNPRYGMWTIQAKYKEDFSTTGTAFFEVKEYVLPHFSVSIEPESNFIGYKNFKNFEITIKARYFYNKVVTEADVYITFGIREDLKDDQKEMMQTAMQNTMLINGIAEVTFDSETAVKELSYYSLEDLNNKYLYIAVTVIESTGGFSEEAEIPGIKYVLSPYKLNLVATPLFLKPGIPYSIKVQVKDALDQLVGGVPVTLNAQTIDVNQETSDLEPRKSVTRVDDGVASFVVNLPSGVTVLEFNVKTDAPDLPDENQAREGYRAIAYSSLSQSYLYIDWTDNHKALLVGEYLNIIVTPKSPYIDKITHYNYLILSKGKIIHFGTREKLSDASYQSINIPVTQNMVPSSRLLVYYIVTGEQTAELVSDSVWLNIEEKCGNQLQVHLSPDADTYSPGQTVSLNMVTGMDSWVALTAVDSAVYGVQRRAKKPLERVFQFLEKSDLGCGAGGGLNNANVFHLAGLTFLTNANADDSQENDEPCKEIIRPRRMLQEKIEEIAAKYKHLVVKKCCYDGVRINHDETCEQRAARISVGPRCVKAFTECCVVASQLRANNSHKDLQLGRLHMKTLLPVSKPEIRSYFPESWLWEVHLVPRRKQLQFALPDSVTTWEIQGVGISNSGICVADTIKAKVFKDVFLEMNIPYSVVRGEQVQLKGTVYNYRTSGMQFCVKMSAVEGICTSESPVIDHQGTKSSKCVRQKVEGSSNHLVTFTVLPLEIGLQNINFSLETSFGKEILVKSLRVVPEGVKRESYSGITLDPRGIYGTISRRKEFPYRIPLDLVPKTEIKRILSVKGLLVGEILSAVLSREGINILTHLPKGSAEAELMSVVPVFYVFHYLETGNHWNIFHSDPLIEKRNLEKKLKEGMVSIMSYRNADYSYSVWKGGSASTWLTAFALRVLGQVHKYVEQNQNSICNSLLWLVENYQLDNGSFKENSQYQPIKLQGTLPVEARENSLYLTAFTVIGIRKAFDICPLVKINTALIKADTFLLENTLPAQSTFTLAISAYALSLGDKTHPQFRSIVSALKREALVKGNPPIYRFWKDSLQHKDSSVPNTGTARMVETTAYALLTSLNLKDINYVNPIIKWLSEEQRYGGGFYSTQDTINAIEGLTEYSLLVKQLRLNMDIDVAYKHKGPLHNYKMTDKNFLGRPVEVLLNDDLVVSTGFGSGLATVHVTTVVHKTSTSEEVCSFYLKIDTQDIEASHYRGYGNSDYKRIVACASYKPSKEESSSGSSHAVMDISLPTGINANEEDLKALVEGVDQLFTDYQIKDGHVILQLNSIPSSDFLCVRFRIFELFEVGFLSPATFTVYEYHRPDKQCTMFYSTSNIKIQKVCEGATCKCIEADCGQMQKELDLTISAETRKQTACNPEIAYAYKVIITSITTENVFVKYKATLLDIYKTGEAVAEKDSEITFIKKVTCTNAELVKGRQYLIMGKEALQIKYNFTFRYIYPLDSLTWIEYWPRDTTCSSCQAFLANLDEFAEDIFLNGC

human C3 [6] = target: T2, human C3; assay: BLI; remark: listed apart in the source
human C3 [7] = target: T2, human C3; assay: BLI; remark: listed apart in the source
human C5 [8] = target: T1, human C5; assay: BLI; remark: listed apart in the source
human C3 [9] = target: T2, human C3; assay: BLI; remark: listed apart in the source
human C3 [10] = target: T2, human C3; assay: BLI, bivalent

B1: C5S8 (antibody, V domains shown)
VH: QVQLQESGGGLVQAGGSLRLSCAASGNIFDEWDMGWYRQAPGKEREFVAAIDDGASTYYADSVKGRFTISRDNAKNTVYLQMNSLKPEDTAVYYCAARQTYAWDYRYWGQGTQVTVSS
**Q.** With B1 as the binder, how does the Kd (human C5 [1]) read?
**A.** 7 nM

B2: C3S5 (antibody, V domains shown)
VH: QVQLQESGGGLVQAGGSLRLSCAASGTIFDDESMGWYRQAPGKEREFVASINYGSTTYYADSVKGRFTISRDNAKNTVYLQMNSLKPEDTAVYYCAVGWSTNYDWTLSYYYWGQGTLVTVSS
**Q.** Does B2 bind (human C3 [2])?
**A.** no binding

B3: C3S10 (antibody, V domains shown)
VH: QVQLQESGGGLVQAGGSLRLSCAASGYISGGSIMGWYRQAPGKEREFVAGINQGSNTYYADSVKGRFTISRDNAKNTVYLQMNSLKPEDTAVYYCAVGGRSYYYHHYWGQGTQVTVSS
**Q.** Does B3 bind (human C3 [2])?
**A.** no binding

B4: C5S1 (antibody, V domains shown)
VH: QVQLQESGGGLVQAGGSLRLSCAASGYISYDDDMGWYRQAPGKEREFVAAIDVGGSTYYADSVKGRFTISRDNAKNTVYLQMNSLKPEDTAVYYCAVRDGYYWDHDYWGQGTQVTVSS
**Q.** For B4, which Kd (human C5 [1]) is on record?
**A.** 9.5 nM

B5: C3I4 (antibody, V domains shown)
VH: DVQLVESGGGLVQPGGSLRLSCATSGFTLDYYAIGWFRQAPGKEREGVSCITGPDGSTHYADSVKGRFTISRDNAKNTVYLQMNSLKPEDTAVYYCAATAGLYGCGYGMDHWGKGTQVTVSS
**Q.** For B5, which Kd (human C3 [3]) is on record?
**A.** 27 nM

B6: C5S12 (antibody, V domains shown)
VH: QVQLQESGGGLVQAGGSLRLSCAASGYIFPSDDMGWYRQAPGKEREFVAAINDGASTYYADSVKGRFTISRDNAKNTVYLQMNSLKPEDTAVYYCAVQLNYYWDYVYWGQGTQVTVSS
**Q.** Does B6 bind (human C5 [4])?
**A.** no binding

B7: eculizumab (antibody, V domains shown)
VH: QVQLVQSGAEVKKPGASVKVSCKASGYIFSNYWIQWVRQAPGQGLEWMGEILPGSGSTEYTENFKDRVTMTRDTSTSTVYMELSSLRSEDTAVYYCARYFFGSSPNWYFDVWGQGTLVTVSS
VL: DIQMTQSPSSLSASVGDRVTITCGASENIYGALNWYQQKPGKAPKLLIYGATNLADGVPSRFSGSGSGTDFTLTISSLQPEDFATYYCQNVLNTPLTFGQGTKVEIKR
**Q.** Does B7 bind (human C5 W917S)?
**A.** no binding

B8: C3S6 (antibody, V domains shown)
VH: QVQLQESGGGLVQAGGSLRLSCAASGNIFVGHGMGWYRQAPGKEREFVAAIGYGAITNYADSVKGRFTISRDNAKNTVYLQMNSLKPEDTAVYYCAASSYYPPRYWYWGQGTLVTVSS
**Q.** With B8 as the binder, how does the Kd (human C3 [3]) read?
**A.** 20 nM

B9: C5S2 (antibody, V domains shown)
VH: QVQLQESGGGLVQAGGSLRLSCAASGNIFHQSDMGWYRQAPGKEREFVAAIDYGTNTYYADSVKGRFTISRDNAKNTVYLQMNSLKPEDTAVYYCAARDTSYWDHVYWGQGTQVTVSS
**Q.** With B9 as the binder, how does the Kd (human C5 [5]) read?
**A.** 6.29 nM

**Q.** And the Kd (human C5 [1])?
**A.** 1.98 nM

**Q.** Does B9 bind (cynomolgus C5)?
**A.** no binding

**Q.** Does B9 bind (human C3 [6])?
**A.** no binding

B10: C3I8 (designed binder)
chain: DVQLVESGGGLVQPGGSLRLSCATSGFSFGVYDMSWVRQASGKGLEWVSGIDSGSNTAYADSVKVRFTISRDNAKNTLYLQMNNLKPEDTAVYYCALGRETDYIPVTDFRTQGTQVTVSS
**Q.** With B10 as the binder, how does the Kd (human C3 [3]) read?
**A.** 4.8 nM

B11: C3N10.3 (antibody, V domains shown)
VH: EVQLVESGGGLVQAGGSLRLACAASGLTFSPYAMGWFRQAPGKEREFVAGIRWISGNPYYADSVKGRFTISRDNSKNTLYLQMNSLRPEDTAVYSCAAAPLTRSYDYWGQGTLVTVSS
**Q.** For B11, which Kd (human C3 [7]) is on record?
**A.** 5 nM

**Q.** Does B11 bind (cynomolgus C5)?
**A.** no binding

**Q.** Does B11 bind (human C5 [8])?
**A.** no binding

**Q.** And the Kd (human C3 [9])?
**A.** 5.32 nM

B12: C3N10 (antibody, V domains shown)
VH: B11 VH with E1D, S75A, L79V, R87K, L113Q
**Q.** Which results are given for B12?
**A.** Kd (human C3 [3]): 7.6 nM; binding result (cynomolgus C5): no binding; binding result (human C5 [8]): no binding; Kd (human C3 [9]): 3.64 nM

B13: C3N10.3-Fc (antibody, V domains shown)
VH: B11 VH
**Q.** How did the Kd (human C3 [10]) turn out when B13 was run?
**A.** 3.25 nM

B14: C3S8 (antibody, V domains shown)
VH: QVQLQESGGGLVQAGGSLRLSCAASGTIFPTDRMGWYRQAPGKEREFVATIDLGGTTNYADSVKGRFTISRDNAKNTVYLQMNSLKPEDTAVYYCAAAWEGPSRYGRHRYYSHRYWGQGTQVTVSS
**Q.** Which Kd (human C3 [3]) does the source give for B14 here?
**A.** 14 nM

B15: C3I22 (antibody, V domains shown)
VH: DVQLVESGGGLVQPGGSLRLSCTASGFTFGVYAMSWVRQAPGKGLEWVSSIDSGVNTAYADSVKGRFTISRDNAINTVFLQMNSLKPEDTAVYHCALGRESDYEPVTGSWGQGTQVTVSS
**Q.** How did the Kd (human C3 [3]) turn out when B15 was run?
**A.** 3.9 nM

B16: C5S5 (antibody, V domains shown)
VH: QVQLQESGGGLVQAGGSLRLSCAASGTISPYEGMGWYRQAPGKERELVAAIDGGGITYYADSVKGRFTISRDNAKNTVYLQMNSLKPEDTAVYYCAAGIWTLSYYDYWGQGTQVTVSS
**Q.** Which Kd (human C5 [1]) does the source give for B16 here?
**A.** 13 nM

B17: C3I3 (antibody, V domains shown)
VH: DVQLVESGGGLVQPGGSLRLSCAASGFTLDNYAIAWFRQAPGKEREGVSCISSSRGSTAYEDSVKGRFTIARDNAKNTVYLQMNSLKPEDTAVYYCAARARGMCREFDYDYWGQGTQVTVSS
**Q.** For B17, which Kd (human C3 [3]) is on record?
**A.** 17 nM

B18: C3S3.2 (antibody, V domains shown)
VH: EVQLVESGGGLVQAGGSLRLSCAASGTIFSRNYMGWYRQAPGKERELVAGIGYGSSTNYADSVKGRFTISRDNSKNTLYLQMNSLRPEDTAVYYCAAVPTYRPYYFYWGQGTLVTVSS
**Q.** How did the Kd (human C3 [7]) turn out when B18 was run?
**A.** 6 nM

**Q.** Does B18 bind (cynomolgus C5)?
**A.** no binding

**Q.** Does B18 bind (human C5 [8])?
**A.** no binding

**Q.** What about the Kd (human C3 [9]) of the same binder?
**A.** 5.83 nM

B19: C3S3.2-Fc (antibody, V domains shown)
VH: B18 VH
**Q.** How did the Kd (human C3 [10]) turn out when B19 was run?
**A.** 0.703 nM

B20: C3S3 (antibody, V domains shown)
VH: B18 VH with E1Q, V5Q, S74A, L78V, R86K, L113Q
**Q.** With B20 as the binder, how does the Kd (human C3 [3]) read?
**A.** 23 nM

**Q.** Does B20 bind (cynomolgus C5)?
**A.** no binding

**Q.** Does B20 bind (human C5 [8])?
**A.** no binding

**Q.** And the Kd (human C3 [9])?
**A.** 4.97 nM
